The values below are quoted from earlier work in PMC10696404.

Where “and” joins values, the source holds several entries; their conditions need not be identical. Equal values may be shown once.

One data set has as its target CEA (Homo sapiens) (UniProt P06731). Briefly: SPR. (SPR reads the build-up and loss of mass on a sensor chip optically.)
A further data set deals with CD44v3-10 (Homo sapiens) (UniProt P16070). Briefly: SPR.
The next data set concerns the target CD44s (Homo sapiens) (UniProt P16070). Put plainly: SPR.
The target in the next data set is ALCAM (Homo sapiens) (UniProt Q13740). Briefly: SPR.
Sequence of ALCAM (Homo sapiens) (Q13740 28-583): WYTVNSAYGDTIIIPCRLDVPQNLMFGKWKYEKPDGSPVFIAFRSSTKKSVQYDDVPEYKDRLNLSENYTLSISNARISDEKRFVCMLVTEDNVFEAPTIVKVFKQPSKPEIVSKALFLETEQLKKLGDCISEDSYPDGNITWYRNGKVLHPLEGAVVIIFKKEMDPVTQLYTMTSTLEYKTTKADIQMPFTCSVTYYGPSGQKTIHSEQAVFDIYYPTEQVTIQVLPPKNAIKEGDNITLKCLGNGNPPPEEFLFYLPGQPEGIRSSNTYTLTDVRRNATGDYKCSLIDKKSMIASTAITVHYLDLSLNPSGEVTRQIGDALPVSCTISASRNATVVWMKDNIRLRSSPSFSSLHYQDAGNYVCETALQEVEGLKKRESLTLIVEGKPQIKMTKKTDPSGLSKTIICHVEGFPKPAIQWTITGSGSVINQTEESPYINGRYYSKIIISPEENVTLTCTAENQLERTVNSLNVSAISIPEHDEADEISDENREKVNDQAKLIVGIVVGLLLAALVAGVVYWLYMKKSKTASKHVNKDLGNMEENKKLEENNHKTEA
In the next data set the target is CD44vRA (Homo sapiens) (UniProt P16070). Put plainly: SPR.
A further data set deals with CD13 (Homo sapiens) (UniProt P15144). Put plainly: SPR.
The next data set deals with DLL4 (Homo sapiens) (UniProt Q9NR61). Briefly: SPR.
Sequence of DLL4 (Homo sapiens) (Q9NR61 27-685): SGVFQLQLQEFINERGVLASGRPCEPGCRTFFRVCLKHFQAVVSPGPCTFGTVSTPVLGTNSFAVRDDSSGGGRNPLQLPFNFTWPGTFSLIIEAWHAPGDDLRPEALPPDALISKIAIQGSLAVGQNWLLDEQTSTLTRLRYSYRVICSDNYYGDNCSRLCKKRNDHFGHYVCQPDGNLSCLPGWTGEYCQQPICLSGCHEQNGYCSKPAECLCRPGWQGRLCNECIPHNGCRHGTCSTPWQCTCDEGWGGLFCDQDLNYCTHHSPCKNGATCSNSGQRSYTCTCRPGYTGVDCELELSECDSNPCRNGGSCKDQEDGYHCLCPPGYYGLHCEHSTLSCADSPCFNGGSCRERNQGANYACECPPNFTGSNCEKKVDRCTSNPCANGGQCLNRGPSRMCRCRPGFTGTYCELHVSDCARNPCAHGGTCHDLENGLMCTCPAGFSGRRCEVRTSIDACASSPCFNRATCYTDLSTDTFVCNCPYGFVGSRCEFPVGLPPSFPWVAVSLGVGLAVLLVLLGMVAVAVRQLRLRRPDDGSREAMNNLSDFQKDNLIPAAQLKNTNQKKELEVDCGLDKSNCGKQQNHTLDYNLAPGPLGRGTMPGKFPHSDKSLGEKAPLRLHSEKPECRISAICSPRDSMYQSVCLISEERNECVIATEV
The target of a further data set is JAG1 (Homo sapiens) (UniProt P78504). Put plainly: SPR.
Sequence of JAG1 (Homo sapiens) (P78504 34-1218): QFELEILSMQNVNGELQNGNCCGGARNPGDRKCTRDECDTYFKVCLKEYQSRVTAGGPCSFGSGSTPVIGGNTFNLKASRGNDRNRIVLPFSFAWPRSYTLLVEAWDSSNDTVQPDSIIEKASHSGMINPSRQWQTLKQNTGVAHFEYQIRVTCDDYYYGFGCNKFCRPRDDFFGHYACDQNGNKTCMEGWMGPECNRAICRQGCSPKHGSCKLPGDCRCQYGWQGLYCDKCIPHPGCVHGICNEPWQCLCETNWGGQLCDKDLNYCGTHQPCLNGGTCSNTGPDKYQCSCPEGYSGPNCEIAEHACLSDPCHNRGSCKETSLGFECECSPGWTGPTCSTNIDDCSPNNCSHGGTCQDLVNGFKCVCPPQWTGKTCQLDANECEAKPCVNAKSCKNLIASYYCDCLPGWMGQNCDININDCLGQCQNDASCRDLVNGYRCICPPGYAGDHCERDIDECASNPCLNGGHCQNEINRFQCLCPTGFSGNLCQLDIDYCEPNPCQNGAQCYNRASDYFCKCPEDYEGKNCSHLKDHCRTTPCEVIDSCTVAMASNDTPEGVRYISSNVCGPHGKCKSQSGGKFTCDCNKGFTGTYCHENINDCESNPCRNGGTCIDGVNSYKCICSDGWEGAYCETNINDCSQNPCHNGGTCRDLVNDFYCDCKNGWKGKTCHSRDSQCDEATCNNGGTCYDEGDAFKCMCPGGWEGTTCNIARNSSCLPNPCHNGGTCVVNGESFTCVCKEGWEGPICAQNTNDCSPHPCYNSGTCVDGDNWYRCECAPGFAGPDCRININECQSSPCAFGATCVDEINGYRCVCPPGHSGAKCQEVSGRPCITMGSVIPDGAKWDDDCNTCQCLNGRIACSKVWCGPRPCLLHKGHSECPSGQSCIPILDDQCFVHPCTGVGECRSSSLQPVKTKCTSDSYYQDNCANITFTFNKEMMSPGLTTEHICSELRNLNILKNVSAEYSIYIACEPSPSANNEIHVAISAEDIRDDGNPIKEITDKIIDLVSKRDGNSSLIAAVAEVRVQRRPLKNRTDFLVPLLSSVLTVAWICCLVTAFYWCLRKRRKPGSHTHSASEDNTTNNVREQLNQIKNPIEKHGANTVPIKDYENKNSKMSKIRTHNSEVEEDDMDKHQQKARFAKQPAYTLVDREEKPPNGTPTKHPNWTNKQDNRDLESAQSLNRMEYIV
For the next data set, the target named is CD146 ECD (Homo sapiens) (UniProt P43121). Put plainly: bio-layer interferometry. For orientation: Biolayer interferometry detects binding as a change in optical thickness at a sensor tip.
Another data set has as its target NRP1 (Homo sapiens) (UniProt O14786). Briefly: SPR.

Sequence of GAL-3 (P17931 2-250): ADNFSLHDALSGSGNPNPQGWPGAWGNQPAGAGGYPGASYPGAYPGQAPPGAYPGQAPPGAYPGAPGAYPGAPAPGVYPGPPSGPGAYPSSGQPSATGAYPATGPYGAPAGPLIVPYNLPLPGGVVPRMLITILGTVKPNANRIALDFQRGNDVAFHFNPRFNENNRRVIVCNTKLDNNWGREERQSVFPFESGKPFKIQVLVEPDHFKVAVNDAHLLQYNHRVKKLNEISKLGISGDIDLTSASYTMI
Sequence of GAL-8 (O00214 whole entry): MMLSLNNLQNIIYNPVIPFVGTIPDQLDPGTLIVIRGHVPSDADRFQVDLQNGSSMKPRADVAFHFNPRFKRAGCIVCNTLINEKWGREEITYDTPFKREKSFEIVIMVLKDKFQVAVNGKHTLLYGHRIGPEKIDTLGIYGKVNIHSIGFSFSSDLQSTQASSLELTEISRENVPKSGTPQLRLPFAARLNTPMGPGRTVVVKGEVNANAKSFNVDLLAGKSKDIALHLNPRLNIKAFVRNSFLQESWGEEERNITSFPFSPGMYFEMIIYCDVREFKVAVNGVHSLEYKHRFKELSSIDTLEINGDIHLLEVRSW
Sequence of GAL-4 (P56470 whole entry): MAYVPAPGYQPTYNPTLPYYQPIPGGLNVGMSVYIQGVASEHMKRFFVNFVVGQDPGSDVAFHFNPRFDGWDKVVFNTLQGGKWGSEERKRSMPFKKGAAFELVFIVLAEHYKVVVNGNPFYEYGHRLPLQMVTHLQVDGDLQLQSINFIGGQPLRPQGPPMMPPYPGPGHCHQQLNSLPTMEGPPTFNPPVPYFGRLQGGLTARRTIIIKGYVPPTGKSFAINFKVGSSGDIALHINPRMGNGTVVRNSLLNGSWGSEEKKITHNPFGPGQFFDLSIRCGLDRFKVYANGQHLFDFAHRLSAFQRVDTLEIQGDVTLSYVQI
Sequence of CEA (Homo sapiens) (P06731 35-676): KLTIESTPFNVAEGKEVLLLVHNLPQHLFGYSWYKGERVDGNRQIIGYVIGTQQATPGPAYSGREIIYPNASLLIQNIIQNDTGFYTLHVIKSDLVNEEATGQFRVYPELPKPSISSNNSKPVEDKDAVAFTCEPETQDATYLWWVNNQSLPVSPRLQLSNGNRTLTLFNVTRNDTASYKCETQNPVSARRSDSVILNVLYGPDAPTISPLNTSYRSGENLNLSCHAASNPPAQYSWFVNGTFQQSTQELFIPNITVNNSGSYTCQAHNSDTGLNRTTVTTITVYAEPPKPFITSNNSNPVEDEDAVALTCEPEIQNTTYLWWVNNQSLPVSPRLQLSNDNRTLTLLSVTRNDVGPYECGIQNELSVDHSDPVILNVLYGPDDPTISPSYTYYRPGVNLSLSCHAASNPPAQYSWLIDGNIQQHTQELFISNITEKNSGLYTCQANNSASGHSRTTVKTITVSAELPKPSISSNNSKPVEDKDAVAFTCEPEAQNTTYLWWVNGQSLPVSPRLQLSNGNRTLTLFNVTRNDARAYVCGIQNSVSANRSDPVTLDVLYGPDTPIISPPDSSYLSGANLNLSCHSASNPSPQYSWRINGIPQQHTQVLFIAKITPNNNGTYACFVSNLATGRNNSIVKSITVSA
Sequence of NRP1 (Homo sapiens) (O14786 22-923): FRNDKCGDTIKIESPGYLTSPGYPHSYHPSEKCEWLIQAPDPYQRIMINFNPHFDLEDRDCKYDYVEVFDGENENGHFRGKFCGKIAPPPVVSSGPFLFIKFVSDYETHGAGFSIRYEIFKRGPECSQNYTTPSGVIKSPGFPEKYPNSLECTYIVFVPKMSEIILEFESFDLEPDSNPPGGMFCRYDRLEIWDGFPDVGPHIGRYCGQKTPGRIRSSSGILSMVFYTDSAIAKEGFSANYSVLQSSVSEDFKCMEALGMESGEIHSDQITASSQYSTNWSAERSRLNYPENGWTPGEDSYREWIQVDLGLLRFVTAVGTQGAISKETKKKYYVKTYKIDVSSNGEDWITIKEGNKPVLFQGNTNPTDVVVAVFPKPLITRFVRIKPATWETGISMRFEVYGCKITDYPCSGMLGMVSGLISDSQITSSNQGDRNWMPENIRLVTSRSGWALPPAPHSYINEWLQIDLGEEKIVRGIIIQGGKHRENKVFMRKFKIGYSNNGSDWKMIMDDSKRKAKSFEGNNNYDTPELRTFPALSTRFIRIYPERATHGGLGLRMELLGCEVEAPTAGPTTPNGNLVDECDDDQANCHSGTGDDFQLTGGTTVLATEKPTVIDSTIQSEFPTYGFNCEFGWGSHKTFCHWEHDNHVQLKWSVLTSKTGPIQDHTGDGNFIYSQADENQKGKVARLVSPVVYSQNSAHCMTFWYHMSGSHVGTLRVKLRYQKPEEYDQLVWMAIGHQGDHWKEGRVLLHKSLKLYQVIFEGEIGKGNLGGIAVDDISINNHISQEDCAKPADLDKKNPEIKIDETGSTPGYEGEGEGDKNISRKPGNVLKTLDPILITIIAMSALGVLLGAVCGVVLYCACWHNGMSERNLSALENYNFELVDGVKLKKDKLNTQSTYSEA
Sequence of GAL-1 (P09382 2-135): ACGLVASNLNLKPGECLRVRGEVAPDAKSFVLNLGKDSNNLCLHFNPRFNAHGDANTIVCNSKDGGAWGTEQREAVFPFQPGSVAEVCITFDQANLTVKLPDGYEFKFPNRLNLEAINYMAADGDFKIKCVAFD

As for GAL-4 (from UniProt P56470), the dissociation constant (Kd) (in general, the equilibrium constant for the complex coming apart) in the data set with CEA (Homo sapiens) was 20 nM.

In the case of GAL-8 (from UniProt O00214), the equilibrium dissociation constant (Kd) was 27 nM with CD44v3-10 (Homo sapiens); 10000 nM with CD44s (Homo sapiens); 3190 nM and 2000 nM with ALCAM (Homo sapiens); 5.8 nM in the data set with CD44vRA (Homo sapiens).

For the substance GAL-3 (from UniProt P17931), the Kd with CD13 (Homo sapiens) was 349 nM; with DLL4 (Homo sapiens) it was 8520 nM; in the data set with JAG1 (Homo sapiens) it was 8910 nM; with CD146 ECD (Homo sapiens), 1100 nM.

Turning to GAL-1 (from UniProt P09382), the equilibrium dissociation constant (Kd) in the data set with NRP1 (Homo sapiens) is 109 nM.
